± gives the standard deviation of the averaged measurements.
System: ATP
Test: switch fluorescence ratio, 500 uM ATP over buffer (Cy3 cluster intensity, sum of 5 cycles each) (fold (ratio)); higher = stronger signal-on switching upon ATP binding; sequences stand for … in TCGTCGGCAGCGTCAGATGTGTATAAGAGACAGTTTTTTTTTTTTTTTTTTTTTTTTT…TC
Conditions: aptamer strand: ATP DNA aptamer (quencher-CACCTGGGGGAGTATTGCGGAGGAAGG + anchor), 100 nM annealed; ATP concentration: 500 uM
Summary of the method: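 After annealing to 100 nM quencher-labelled ATP aptamer, Cy3-labelled switching-strand clusters on a modified Illumina MiSeq flow-cell were imaged in selection buffer. A second image followed after 15 min with 500 uM ATP at 22 °C, and five such buffer/ATP cycles were done, each separated by NaOH stripping and re-annealing. The fluorescence ratio, averaged per switch-domain sequence, is summed target-cycle over summed buffer-cycle Cy3 intensity per cluster, with clusters outside 100-1000 RFU excluded.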
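Further: ATP exposure 15 min at 22 °C before imaging.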

With ACACTGGCCC the switch fluorescence ratio was 0.964 ± 0.038.

TTAGCGGTGG showed a switch fluorescence ratio of 0.926 ± 0.057.

With TGAGTGGCTC the switch fluorescence ratio was 0.9793 ± 0.0053.

In the case of AGGAAGGTGT, the switch fluorescence ratio is reported as 1.13 ± 0.2.

TGAGTATGGG showed a switch fluorescence ratio of 0.973 ± 0.019.

TCATGTTTTT gave a switch fluorescence ratio of 1.05 ± 0.14.

Sequence CACCTTACTC has a switch fluorescence ratio of 2.07 ± 0.11.

In the case of TGGGGTAAAA, the switch fluorescence ratio is reported as 0.99 ± 0.0091.

AAGGATTGGG showed a switch fluorescence ratio of 1.02 ± 0.0049.

Work on CTCCATATTA yielded a switch fluorescence ratio of 1.057 ± 0.0068.

TTTTTCGCGG showed a switch fluorescence ratio of 1.01 ± 0.015.

Work on TCGCCATGAT yielded a switch fluorescence ratio of 0.999 ± 0.02.

GCGGGCGTTC gave a switch fluorescence ratio of 1.0164 ± 0.0005.

In the case of CGAACTGAGG, the switch fluorescence ratio is reported as 0.985 ± 0.014.

In the case of ACATTAAAAA, the switch fluorescence ratio is reported as 1.26 ± 0.013.

Sequence AGTGAGCTGA has a switch fluorescence ratio of 0.9769 ± 0.0069.

Sequence ATGTACCGCG has a switch fluorescence ratio of 1.06 ± 0.016.

TCTCTTTAAT showed a switch fluorescence ratio of 0.997 ± 0.021.

Sequence TGGCTTTGTT has a switch fluorescence ratio of 0.9888 ± 0.0041.

In the case of TCGGTTTGCA, the switch fluorescence ratio is reported as 0.997 ± 0.018.

CAAGTATCAT gave a switch fluorescence ratio of 0.996 ± 0.076.

With GGCGGCGCTG the switch fluorescence ratio was 1.03 ± 0.028.

Sequence CTCTAATTTT has a switch fluorescence ratio of 1.013 ± 0.0052.

Work on TTGTTTTCAT yielded a switch fluorescence ratio of 1.04 ± 0.018.

Sequence TGTGGGGCAT has a switch fluorescence ratio of 1.15 ± 0.27.

Work on GAAATTGGTT yielded a switch fluorescence ratio of 0.988 ± 0.067.

With TTACGCAATT the switch fluorescence ratio was 4.42 ± 0.59.

CATAATTAGT showed a switch fluorescence ratio of 0.994 ± 0.018.

CGATTTGGGC gave a switch fluorescence ratio of 0.982 ± 0.021.

CAGGTTGAAC showed a switch fluorescence ratio of 0.9866 ± 0.0021.

In the case of TTCGTCATTT, the switch fluorescence ratio is reported as 0.983 ± 0.034.

For GAAATGATGG, the switch fluorescence ratio was 0.978 ± 0.0013.

Work on CGGGACCGGA yielded a switch fluorescence ratio of 1.02 ± 0.073.

With GAGGATTGAC the switch fluorescence ratio was 1 ± 0.038.

Work on AAAATTCGTA yielded a switch fluorescence ratio of 1.028 ± 0.0022.

Sequence ACCTGCTTTT has a switch fluorescence ratio of 1.05 ± 0.051.

Work on CCTTTTTGTC yielded a switch fluorescence ratio of 1.12 ± 0.06.

TTTTGAAAGT showed a switch fluorescence ratio of 1.07 ± 0.14.

Work on GCAGGGGTTG yielded a switch fluorescence ratio of 1.03 ± 0.071.

In the case of GGATTTTAGG, the switch fluorescence ratio is reported as 0.997 ± 0.019.

In the case of GGGGATTTGG, the switch fluorescence ratio is reported as 0.992 ± 0.018.

With GAAACTTGTG the switch fluorescence ratio was 0.963 ± 0.025.

AGGGTCTCGT gave a switch fluorescence ratio of 1.009 ± 0.0025.

Sequence GTTATGGGTG has a switch fluorescence ratio of 0.983 ± 0.029.

CTCAGCCCGT gave a switch fluorescence ratio of 1.03 ± 0.095.

CCTTTGGTTT was tested, and the switch fluorescence ratio was 0.982 ± 0.013.

For CGGGGGGATG, the switch fluorescence ratio was 1.01 ± 0.033.

CCACACTGAT was tested, and the switch fluorescence ratio was 1.025 ± 0.0025.

In the case of TTTTGTGGGG, the switch fluorescence ratio is reported as 0.999 ± 0.037.

GTATACGGCA showed a switch fluorescence ratio of 1.01 ± 0.022.

For CAATGGAAGG, the switch fluorescence ratio was 1.03 ± 0.025.

Sequence GGAGTTATAT has a switch fluorescence ratio of 1.105 ± 0.01.

AAAGCCGATG was tested, and the switch fluorescence ratio was 1 ± 0.012.

In the case of TAGATGTCCG, the switch fluorescence ratio is reported as 0.922 ± 0.098.

AGGGTAATTT showed a switch fluorescence ratio of 1.043 ± 0.0063.

GCGTGTCCGT was tested, and the switch fluorescence ratio was 1.01 ± 0.025.

TATCGAAGCG gave a switch fluorescence ratio of 0.969 ± 0.058.

With GGATGCGCCT the switch fluorescence ratio was 1.06 ± 0.15.

In the case of TCGGGGGGG, the switch fluorescence ratio is reported as 1.01 ± 0.016.

Sequence TTTAGACGGT has a switch fluorescence ratio of 1.02 ± 0.066.

ATTATGCTG gave a switch fluorescence ratio of 0.98 ± 0.05.

Work on CGGGATCTGT yielded a switch fluorescence ratio of 1.01 ± 0.024.

For AAATATATGT, the switch fluorescence ratio was 0.997 ± 0.046.

GTATCGAGGA gave a switch fluorescence ratio of 0.963 ± 0.047.

GTAACCCCGG showed a switch fluorescence ratio of 1.07 ± 0.025.

With AATGTCTCTC the switch fluorescence ratio was 0.998 ± 0.058.

With CGTACTTGTT the switch fluorescence ratio was 1.01 ± 0.035.

In the case of TGCGAGGGGG, the switch fluorescence ratio is reported as 1.01 ± 0.033.

With ATCATTGGG the switch fluorescence ratio was 1.014 ± 0.008.

With TGTGGTGCAG the switch fluorescence ratio was 1 ± 0.042.

With GTGATGCTTG the switch fluorescence ratio was 0.998 ± 0.037.

AGGGGGGTGT gave a switch fluorescence ratio of 1.03 ± 0.028.

ACGGAAAAAG showed a switch fluorescence ratio of 1.01 ± 0.026.

TTTGTGGGGT showed a switch fluorescence ratio of 1.01 ± 0.047.

TAGTCGAGAT gave a switch fluorescence ratio of 0.989 ± 0.029.

AATGTTTATC showed a switch fluorescence ratio of 1.027 ± 0.0084.

For GCGATTTTTT, the switch fluorescence ratio was 0.974 ± 0.021.

For CTTGGGGATG, the switch fluorescence ratio was 0.997 ± 0.042.

TAATTGGGGC was tested, and the switch fluorescence ratio was 1.02 ± 0.012.

TGGGAGAAAC showed a switch fluorescence ratio of 1.09 ± 0.091.

With TAACGTTTTG the switch fluorescence ratio was 0.989 ± 0.025.

For GAGCGAGAAG, the switch fluorescence ratio was 1.01 ± 0.028.

GAAAGTCTGT showed a switch fluorescence ratio of 1.07 ± 0.087.

TCTTTGGGGT was tested, and the switch fluorescence ratio was 1.01 ± 0.012.

For TTCGGGTCGC, the switch fluorescence ratio was 0.963 ± 0.049.

For CATCAGGCGG, the switch fluorescence ratio was 1.02 ± 0.015.

TGATTTACAA was tested, and the switch fluorescence ratio was 1.05 ± 0.015.

AGTTGGGAAC gave a switch fluorescence ratio of 1.01 ± 0.015.

Work on ATTTAATACG yielded a switch fluorescence ratio of 1.02 ± 0.052.

AGTTCGTCGT gave a switch fluorescence ratio of 0.983 ± 0.015.

CGGAGTCGGG showed a switch fluorescence ratio of 1.04 ± 0.052.

Sequence AATCGCTTGG has a switch fluorescence ratio of 0.9965 ± 0.006.

GGGTGTTTTG was tested, and the switch fluorescence ratio was 0.996 ± 0.013.

For CACTCTTGAT, the switch fluorescence ratio was 1.01 ± 0.019.

With CTTGGTCCCG the switch fluorescence ratio was 1.01 ± 0.011.

TTTATATTTT gave a switch fluorescence ratio of 1.02 ± 0.034.

Work on GGGATGGCAG yielded a switch fluorescence ratio of 0.9816 ± 0.0059.

Sequence AATTTATTTG has a switch fluorescence ratio of 1.01 ± 0.037.

Work on TTTATAATTA yielded a switch fluorescence ratio of 0.982 ± 0.013.

Work on ATTCCTTGTA yielded a switch fluorescence ratio of 0.989 ± 0.039.

AAAGAGGAGG was tested, and the switch fluorescence ratio was 0.984 ± 0.036.

TATTACGAGT gave a switch fluorescence ratio of 1.02 ± 0.013.

Sequence TCAGCGGGTT has a switch fluorescence ratio of 1.04 ± 0.12.

Work on GATACTGCGC yielded a switch fluorescence ratio of 1.16 ± 0.087.

In the case of CAAGTGCTTA, the switch fluorescence ratio is reported as 0.9578 ± 0.0081.

With GTTGAAGTTG the switch fluorescence ratio was 0.968 ± 0.02.

ATCGCCGGGG gave a switch fluorescence ratio of 1.02 ± 0.045.

Sequence CCTGGGTAGC has a switch fluorescence ratio of 1.1 ± 0.045.

With TCGGAGGTGT the switch fluorescence ratio was 1.01 ± 0.027.

Sequence CCGTGTATGT has a switch fluorescence ratio of 1.045 ± 0.0062.

For TTGGTCGTTT, the switch fluorescence ratio was 0.956 ± 0.038.

TTGCTGGGAT showed a switch fluorescence ratio of 1.02 ± 0.012.

With TAATTGTTTT the switch fluorescence ratio was 1 ± 0.024.

With GAATGCTCAC the switch fluorescence ratio was 1.14 ± 0.064.

Work on CGATTGCTAG yielded a switch fluorescence ratio of 1.02 ± 0.058.

Sequence AAACATTTTG has a switch fluorescence ratio of 1.02 ± 0.036.

In the case of TATACTTTAT, the switch fluorescence ratio is reported as 1.02 ± 0.037.

CGGTTTTCTT gave a switch fluorescence ratio of 0.995 ± 0.012.

With CTTTGAATTG the switch fluorescence ratio was 0.987 ± 0.023.

CAGTTACGGT was tested, and the switch fluorescence ratio was 1.003 ± 0.0068.

For AAGTCGGGGG, the switch fluorescence ratio was 1 ± 0.029.

GGGATGGTTT showed a switch fluorescence ratio of 0.988 ± 0.028.

Sequence TGTTAAATGA has a switch fluorescence ratio of 0.97 ± 0.013.

In the case of GAAATCGGAT, the switch fluorescence ratio is reported as 0.972 ± 0.016.

With CAATGTGAGG the switch fluorescence ratio was 1.01 ± 0.0063.

With GGTCAAGTTG the switch fluorescence ratio was 0.961 ± 0.019.

AAGGTAGCAC was tested, and the switch fluorescence ratio was 1.03 ± 0.011.

For TTGTTGGGCT, the switch fluorescence ratio was 0.981 ± 0.039.

Sequence GATCCGGCTT has a switch fluorescence ratio of 1.04 ± 0.035.

In the case of GGGATCGTTG, the switch fluorescence ratio is reported as 0.965 ± 0.017.

TATTTTAGTG showed a switch fluorescence ratio of 0.996 ± 0.025.

AAAGTCAAGG showed a switch fluorescence ratio of 0.9933 ± 0.0029.

TGGCGGTACG showed a switch fluorescence ratio of 1.02 ± 0.069.

In the case of TAAAAGGCAA, the switch fluorescence ratio is reported as 1.14 ± 0.085.

With AATAACTAGA the switch fluorescence ratio was 0.9804 ± 0.0037.

In the case of CGATTAAGAT, the switch fluorescence ratio is reported as 1.02 ± 0.021.

In the case of GTGGTCGAGT, the switch fluorescence ratio is reported as 0.989 ± 0.01.

For TCAGTGAGTA, the switch fluorescence ratio was 0.98 ± 0.019.

For GGCCGGCAGG, the switch fluorescence ratio was 0.972 ± 0.024.

For CGATAATGAA, the switch fluorescence ratio was 1 ± 0.029.

Sequence ATATAAGGGC has a switch fluorescence ratio of 1 ± 0.074.

GGGTTGGCTG gave a switch fluorescence ratio of 0.989 ± 0.048.

With GGGCAAACTT the switch fluorescence ratio was 1.02 ± 0.018.

For CGGGGTATTG, the switch fluorescence ratio was 0.999 ± 0.039.

In the case of GAGGCGGCTG, the switch fluorescence ratio is reported as 0.994 ± 0.038.

With TCATGATATG the switch fluorescence ratio was 0.978 ± 0.027.

Work on TTCGTGCGGC yielded a switch fluorescence ratio of 1.06 ± 0.042.

TCGAATAATT gave a switch fluorescence ratio of 1 ± 0.041.

With GCCGGGCAGC the switch fluorescence ratio was 0.98 ± 0.035.

In the case of AAGGGCTGTG, the switch fluorescence ratio is reported as 0.9845 ± 0.007.

GTCGGCGTAG was tested, and the switch fluorescence ratio was 1.03 ± 0.036.

In the case of TTAGGGGCGT, the switch fluorescence ratio is reported as 0.989 ± 0.013.

For TGGGATTCCT, the switch fluorescence ratio was 1.03 ± 0.073.

AGTTGCGATG showed a switch fluorescence ratio of 0.985 ± 0.014.

AGAATGTGGG was tested, and the switch fluorescence ratio was 0.996 ± 0.034.

TTTTCGAAGC showed a switch fluorescence ratio of 2.08 ± 1.5.

In the case of CAAAATATGG, the switch fluorescence ratio is reported as 0.984 ± 0.051.

— the supplement of paper PMC10126150
